One may read the kcat as the number of substrate molecules converted per active site and unit of time at saturation. Broadly, the KM is the substrate concentration at which the rate is half of its maximum.

± gives the standard error. For part of these data: Variants at the floor of the assay were thinned out. Some results are limits rather than exact numbers.

These results are taken from the supplement of paper PMC7125110.

Sequences and labels used below:
B1: glmS ribozyme (parent)
chain: AUAAAAGCGCCAGAACUACAGAAAUGUAGUUGACGAGGAGGAGGUUUAUCGAAUUUUCGGCGGAUGCCUCCAAA

What all share (details): with glucosamine-6-phosphate
The variants in data set [1] derive from B1. The data set is described as follows: kcat; higher = faster cleavage; RNA array. Summed up: (§1)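 In situ transcription by E. coli RNA polymerase produced barcoded ribozyme variants on sequenced MiSeq chips, and a hybridised Cy3 probe tracked them at 37 °C. Glucosamine-6-phosphate was flowed in at 40 μM to 10 mM in HEPES/KCl/Mg(OAc)2 buffer. kcat and KM were taken from weighted Michaelis–Menten fits of kobs values from exponential decay fits.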

The variants in data set [2] derive from B1. Nature of the data set: KM; higher = weaker cofactor use; RNA array. Summed up: as §1
The variants in data set [3] derive from B1. Nature of the data set: self-cleavage kobs at 40 uM GlcN6P; higher = faster cleavage; RNA array. Summed up: as §1
Variants of B1 are the subject of data set [4]. Nature of the data set: self-cleavage kobs at 160 uM GlcN6P; higher = faster cleavage; RNA array. In outline:
as §1

In data set [5] the parent is B1. Nature of the data set: self-cleavage kobs at 640 uM GlcN6P; higher = faster cleavage; RNA array. Summed up: as §1
In data set [6] the parent is B1. The data set is described as follows: self-cleavage kobs at 2500 uM GlcN6P; higher = faster cleavage; RNA array. In outline:
as §1

The variants in data set [7] derive from B1. Nature of the data set: self-cleavage kobs at 10000 uM GlcN6P; higher = faster cleavage; RNA array. In outline: as §1

Take A14U A39U: in the data set with glucosamine-6-phosphate [1], the kcat was found to be 0.00814 ± 0.0024 s⁻¹. In addition, in the data set with glucosamine-6-phosphate [2], the Michaelis-Menten constant (KM) was 3050 ± 1200 µM. The “self-cleavage kobs at 40 uM GlcN6P” value with glucosamine-6-phosphate [3] stood at 0.000133 ± 1.7e-05 s⁻¹. For the same variant, the “self-cleavage kobs at 160 uM GlcN6P” value in the data set with glucosamine-6-phosphate [4] stood at 0.000258 ± 6.7e-05 s⁻¹. Further, in the data set with glucosamine-6-phosphate [5], the “self-cleavage kobs at 640 uM GlcN6P” value came out at 0.00161 ± 0.00024 s⁻¹. Also, the “self-cleavage kobs at 2500 uM GlcN6P” value in the data set with glucosamine-6-phosphate [6] was determined as 0.00346 ± 0.00063 s⁻¹. In addition, the “self-cleavage kobs at 10000 uM GlcN6P” value with glucosamine-6-phosphate [7] came out at 0.00632 ± 0.00089 s⁻¹.
Turning to C10U C70U, the kcat with glucosamine-6-phosphate [1] was determined as 2.53e-05 ± 1.3e-06 s⁻¹. In addition, the KM with glucosamine-6-phosphate [2] stood at 777 ± 240 µM. Moreover, the “self-cleavage kobs at 2500 uM GlcN6P” value in the data set with glucosamine-6-phosphate [6] was determined as 1.83e-05 ± 8e-06 s⁻¹. Moreover, in the data set with glucosamine-6-phosphate [7], the “self-cleavage kobs at 10000 uM GlcN6P” value turned out to be 2.38e-05 ± 7e-06 s⁻¹.
Consider A15C G32U, for which the kcat in the data set with glucosamine-6-phosphate [1] amounted to 0.00121 ± 6.6e-05 s⁻¹. Besides, the KM with glucosamine-6-phosphate [2] was 6690 ± 540 µM. Further, the “self-cleavage kobs at 640 uM GlcN6P” value with glucosamine-6-phosphate [5] stood at 0.000107 ± 1.4e-05 s⁻¹. Besides, the “self-cleavage kobs at 2500 uM GlcN6P” value with glucosamine-6-phosphate [6] turned out to be 0.000321 ± 4.8e-05 s⁻¹. In the data set with glucosamine-6-phosphate [7], the “self-cleavage kobs at 10000 uM GlcN6P” value was 0.000731 ± 7.6e-05 s⁻¹.
For the variant A53C U57G, the kcat in the data set with glucosamine-6-phosphate [1] was 0.000348 ± 0.00012 s⁻¹. In addition, the “self-cleavage kobs at 640 uM GlcN6P” value with glucosamine-6-phosphate [5] came out at 9.98e-05 ± 1.6e-05 s⁻¹. Further, in the data set with glucosamine-6-phosphate [6], the “self-cleavage kobs at 2500 uM GlcN6P” value stood at 0.000143 ± 1.9e-05 s⁻¹. Moreover, the “self-cleavage kobs at 10000 uM GlcN6P” value with glucosamine-6-phosphate [7] turned out to be 0.000339 ± 4.6e-05 s⁻¹.
For the variant A15C C16U, the kcat with glucosamine-6-phosphate [1] is 0.00405 ± 0.00069 s⁻¹. The KM with glucosamine-6-phosphate [2] was found to be 3220 ± 830 µM. For the same variant, the “self-cleavage kobs at 40 uM GlcN6P” value with glucosamine-6-phosphate [3] is 4.37e-05 ± 7.4e-06 s⁻¹. Also, the “self-cleavage kobs at 160 uM GlcN6P” value with glucosamine-6-phosphate [4] stood at 0.000159 ± 4.5e-05 s⁻¹. The “self-cleavage kobs at 640 uM GlcN6P” value in the data set with glucosamine-6-phosphate [5] is 0.000777 ± 0.0001 s⁻¹. The “self-cleavage kobs at 2500 uM GlcN6P” value with glucosamine-6-phosphate [6] amounted to 0.00235 ± 0.00038 s⁻¹. Further, the “self-cleavage kobs at 10000 uM GlcN6P” value with glucosamine-6-phosphate [7] is 0.0029 ± 0.0003 s⁻¹.
Consider G66C C70U, for which the kcat with glucosamine-6-phosphate [1] turned out to be 0.00129 ± 0.00032 s⁻¹. Moreover, the KM with glucosamine-6-phosphate [2] turned out to be 1440 ± 670 µM. Also, the “self-cleavage kobs at 40 uM GlcN6P” value in the data set with glucosamine-6-phosphate [3] was determined as 4.77e-05 ± 9.1e-06 s⁻¹. For the same variant, the “self-cleavage kobs at 160 uM GlcN6P” value with glucosamine-6-phosphate [4] came to 0.000178 ± 3.5e-05 s⁻¹. Also, the “self-cleavage kobs at 640 uM GlcN6P” value with glucosamine-6-phosphate [5] stood at 0.000285 ± 4.7e-05 s⁻¹. In addition, the “self-cleavage kobs at 2500 uM GlcN6P” value with glucosamine-6-phosphate [6] came to 0.00109 ± 0.00013 s⁻¹. In addition, the “self-cleavage kobs at 10000 uM GlcN6P” value with glucosamine-6-phosphate [7] stood at 0.0011 ± 0.00011 s⁻¹.
Regarding A6U C68A, the kcat with glucosamine-6-phosphate [1] is < 1e-05 s⁻¹.
Regarding C58G C71A, in the data set with glucosamine-6-phosphate [1], the kcat worked out at 3.56e-05 ± 9.8e-06 s⁻¹. The “self-cleavage kobs at 160 uM GlcN6P” value with glucosamine-6-phosphate [4] is 4.45e-05 ± 1e-05 s⁻¹. Further, the “self-cleavage kobs at 2500 uM GlcN6P” value in the data set with glucosamine-6-phosphate [6] turned out to be 4.27e-05 ± 7.5e-06 s⁻¹. For the same variant, the “self-cleavage kobs at 10000 uM GlcN6P” value in the data set with glucosamine-6-phosphate [7] worked out at 1.89e-05 ± 9.2e-06 s⁻¹.
U47C U65A: the kcat in the data set with glucosamine-6-phosphate [1] was 0.00113 ± 0.00024 s⁻¹. Further, the Michaelis-Menten constant (KM) with glucosamine-6-phosphate [2] turned out to be 930 ± 300 µM. Further, the “self-cleavage kobs at 40 uM GlcN6P” value with glucosamine-6-phosphate [3] is 6.54e-05 ± 1.7e-05 s⁻¹. For the same variant, in the data set with glucosamine-6-phosphate [4], the “self-cleavage kobs at 160 uM GlcN6P” value was determined as 0.000154 ± 2.2e-05 s⁻¹. Also, in the data set with glucosamine-6-phosphate [5], the “self-cleavage kobs at 640 uM GlcN6P” value was found to be 0.000443 ± 9.4e-05 s⁻¹. Moreover, the “self-cleavage kobs at 2500 uM GlcN6P” value with glucosamine-6-phosphate [6] was found to be 0.00121 ± 0.00023 s⁻¹. For the same variant, the “self-cleavage kobs at 10000 uM GlcN6P” value with glucosamine-6-phosphate [7] came out at 0.00092 ± 0.00017 s⁻¹.
On to U31C A53G C70U, for which the kcat in the data set with glucosamine-6-phosphate [1] was determined as 0.0038 ± 0.00074 s⁻¹. In addition, in the data set with glucosamine-6-phosphate [2], the KM came out at 620 ± 200 µM. Further, in the data set with glucosamine-6-phosphate [3], the “self-cleavage kobs at 40 uM GlcN6P” value was 0.000212 ± 4.6e-05 s⁻¹. The “self-cleavage kobs at 640 uM GlcN6P” value with glucosamine-6-phosphate [5] stood at 0.00265 ± 0.00055 s⁻¹. Further, the “self-cleavage kobs at 2500 uM GlcN6P” value in the data set with glucosamine-6-phosphate [6] turned out to be 0.00272 ± 0.00079 s⁻¹. Also, the “self-cleavage kobs at 10000 uM GlcN6P” value in the data set with glucosamine-6-phosphate [7] came out at 0.00339 ± 0.00081 s⁻¹.
U56A C70A: the kcat with glucosamine-6-phosphate [1] amounted to 8.96e-05 ± 1.4e-05 s⁻¹. Moreover, the “self-cleavage kobs at 40 uM GlcN6P” value in the data set with glucosamine-6-phosphate [3] was found to be 3.68e-05 ± 1.1e-05 s⁻¹. The “self-cleavage kobs at 160 uM GlcN6P” value with glucosamine-6-phosphate [4] came to 5.73e-05 ± 1.1e-05 s⁻¹. The “self-cleavage kobs at 640 uM GlcN6P” value with glucosamine-6-phosphate [5] came out at 7.05e-05 ± 1.1e-05 s⁻¹. Moreover, in the data set with glucosamine-6-phosphate [6], the “self-cleavage kobs at 2500 uM GlcN6P” value came to 0.000153 ± 2.3e-05 s⁻¹. In the data set with glucosamine-6-phosphate [7], the “self-cleavage kobs at 10000 uM GlcN6P” value worked out at 8.51e-05 ± 9.4e-06 s⁻¹.
With A15G C16U C68G, the kcat with glucosamine-6-phosphate [1] is 5.74e-05 ± 2.6e-05 s⁻¹. Also, the “self-cleavage kobs at 640 uM GlcN6P” value in the data set with glucosamine-6-phosphate [5] is 8.06e-05 ± 1.8e-05 s⁻¹. The “self-cleavage kobs at 2500 uM GlcN6P” value with glucosamine-6-phosphate [6] stood at 8.91e-05 ± 3e-05 s⁻¹.
On to C68U U69G C70U, for which the kcat in the data set with glucosamine-6-phosphate [1] was 1.34e-05 ± 6e-06 s⁻¹.
Turning to A53U C58U, the kcat with glucosamine-6-phosphate [1] turned out to be 6.85e-05 ± 2.7e-06 s⁻¹. Further, in the data set with glucosamine-6-phosphate [2], the Michaelis-Menten constant (KM) amounted to 2650 ± 390 µM. In addition, in the data set with glucosamine-6-phosphate [6], the “self-cleavage kobs at 2500 uM GlcN6P” value is 3.23e-05 ± 1.2e-05 s⁻¹. The “self-cleavage kobs at 10000 uM GlcN6P” value in the data set with glucosamine-6-phosphate [7] amounted to 5.43e-05 ± 6.6e-06 s⁻¹.
Regarding G13C A52G, the kcat with glucosamine-6-phosphate [1] amounted to 1.51e-05 ± 1.5e-06 s⁻¹. Also, the KM with glucosamine-6-phosphate [2] was 3660 ± 1000 µM.
With A12C G40C, the kcat with glucosamine-6-phosphate [1] is 0.000942 ± 0.00014 s⁻¹. In the data set with glucosamine-6-phosphate [2], the KM turned out to be 2310 ± 620 µM. In the data set with glucosamine-6-phosphate [3], the “self-cleavage kobs at 40 uM GlcN6P” value stood at 3.01e-05 ± 9.1e-06 s⁻¹. Also, in the data set with glucosamine-6-phosphate [4], the “self-cleavage kobs at 160 uM GlcN6P” value amounted to 5.51e-05 ± 8.5e-06 s⁻¹. For the same variant, in the data set with glucosamine-6-phosphate [5], the “self-cleavage kobs at 640 uM GlcN6P” value came to 0.0002 ± 6.3e-05 s⁻¹. Moreover, the “self-cleavage kobs at 2500 uM GlcN6P” value with glucosamine-6-phosphate [6] was 0.000666 ± 0.00012 s⁻¹. The “self-cleavage kobs at 10000 uM GlcN6P” value with glucosamine-6-phosphate [7] is 0.000746 ± 6.8e-05 s⁻¹.
